Measurements as given in the supplement of paper PMC5998384.

Assays:
HeLa Kyoto [1] = assay: thermal stability score vs G1/S (z-score of summed log2 fold changes over temperatures); higher = more thermally stable than in G1/S
HeLa Kyoto [2] = assay: solubility in G1/S (NP-40 vs SDS abundance) (log2 ratio); higher = more soluble; settings: cell cycle stage: G1/S
HeLa Kyoto [3] = assay: solubility change mitosis vs G1/S (difference of NP-40 vs SDS log2 ratios) (log2 ratio difference); higher = more soluble in mitosis
HeLa Kyoto [4] = assay: melting temperature (median over replicates), in situ; higher = more thermally stable
[5] = cell cycle stage: early G1 (4.5 h after nocodazole release)
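For melting temperature (median over replicates), in situ in this document: HeLa Kyoto cells synchronized by double thymidine or nocodazole block, proteins quantified by TMT10plex mass spectrometry, three independent biological replicates.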
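For solubility change mitosis vs G1/S (difference of NP-40 vs SDS log2 ratios) in this document: synchronized HeLa Kyoto cells (double thymidine block for G1/S, nocodazole release for mitosis), protein amounts in NP-40 versus SDS lysates quantified by mass spectrometry, three biological replicates.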
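For solubility in G1/S (NP-40 vs SDS abundance) in this document: HeLa Kyoto cells arrested at G1/S by double thymidine block, proteins quantified by TMT10plex mass spectrometry in mild NP-40 versus SDS extracts, three biological replicates.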
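For thermal stability score vs G1/S (z-score of summed log2 fold changes over temperatures) in this document: synchronized HeLa Kyoto cells, proteins quantified by TMT10plex mass spectrometry, three biological replicates, mitosis taken 0.5 h after nocodazole release, G1/S directly after double thymidine block.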

Row | Sequence | thermal stability score (HeLa Kyoto [1]; [5]) | thermal stability score (HeLa Kyoto [1]; cell cycle stage: mitosis) | solubility in G1/S (log2) (HeLa Kyoto [2]) | solubility change mitosis (log2) (HeLa Kyoto [3]) | melting temperature (HeLa Kyoto [4]; cell cycle stage: G1/S) [°C] | melting temperature (HeLa Kyoto [4]; cell cycle stage: mitosis) [°C]
1 | MLSRPKPGESEVDLLHFQSQFLAAGAAPAVQLVKKGNRGGGDANSDRPPLQDHRDVVMLDNLPDLPPALVPSPPKRARPSPGHCLPEDEDPEERLRRHDQHITAVLTKIIERDTSSVAVNLPVPSGVAFPAVFLRSRDTQGKSATSGKRSIFAQEIAARRIAEAKGPSVGEVVPNVGPPEGAVTCETPTPRNQGCQLPGSSHSFQGPNLVTGKGLRDQEAEQEAQTIHEENIARLQAMAPEEILQEQQRLLAQLDPSLVAFLRSHSHTQEQTGETASEEQRPGGPSANVTKEEPLMSAFASEPRKRDKLEPEAPALALPVTPQKEWLHMDTVELEKLHWTQDLPPVRRQQTQERMQARFSLQGELLAPDVDLPTHLGLHHHGEEAERAGYSLQELFHLTRSQVSQQRALALHVLAQVISRAQAGEFGDRLAGSVLSLLLDAGFLFLLRFSLDDRVDGVIATAIRALRALLVAPGDEELLDSTFSWYHGALTFPLMPSQEDKEDEDEDEECPAGKAKRKSPEEESRPPPDLARHDVIKGLLATSLLPRLRYVLEVTYPGPAVVLDILAVLIRLARHSLESATRVLECPRLIETIVREFLPTSWSPVGAGPTPSLYKVPCATAMKLLRVLASAGRNIAARLLSSFDLRSRLCRIIAEAPQELALPPEEAEMLSTEALRLWAVAASYGQGGYLYRELYPVLMRALQVVPRELSTHPPQPLSMQRIASLLTLLTQLTLAAGSTPAETISDSAEASLSATPSLVTWTQVSGLQPLVEPCLRQTLKLLSRPEMWRAVGPVPVACLLFLGAYYQAWSQQPSSCPEDWLQDMQRLSEELLLPLLSQPTLGSLWDSLRHCSLLCNPLSCVPALEAPPSLVSLGCSGGCPRLSLAGSASPFPFLTALLSLLNTLAQIHKGLCGQLAAILAAPGLQNYFLQCVAPGAAPHLTPFSAWALRHEYHLQYLALALAQKAAALQPLPATHAALYHGMALALLSRLLPGSEYLTHELLLSCVFRLEFLPERTSGGPEAADFSDQLSLGSSRVPRCGQGTLLAQACQDLPSIRNCYLTHCSPARASLLASQALHRGELQRVPTLLLPMPTEPLLPTDWPFLPLIRLYHRASDTPSGLSPTDTMGTAMRVLQWVLVLESWRPQALWAVPPAARLARLMCVFLVDSELFRESPVQHLVAALLAQLCQPQVLPNLNLDCRLPGLTSFPDLYANFLDHFEAVSFGDHLFGALVLLPLQRRFSVTLRLALFGEHVGALRALSLPLTQLPVSLECYTVPPEDNLALLQLYFRTLVTGALRPRWCPVLYAVAVAHVNSFIFSQDPQSSDEVKAARRSMLQKTWLLADEGLRQHLLHYKLPNSTLPEGFELYSQLPPLRQHYLQRLTSTVLQNGVSET [RPAP1] | 0.47 | 0.88 | -0.1 | -0.0998 | 52.9 | 51.7
2 | MLSVASRSGPFAPVLSATSRGVAGALRPLVQATVPATPEQPVLDLKRPFLSRESLSGQAVRRPLVASVGLNVPASVCYSHTDIKVPDFSEYRRLEVLDSTKSSRESSEARKGFSYLVTGVTTVGVAYAAKNAVTQFVSSMSASADVLALAKIEIKLSDIPEGKNMAFKWRGKPLFVRHRTQKEIEQEAAVELSQLRDPQHDLDRVKKPEWVILIGVCTHLGCVPIANAGDFGGYYCPCHGSHYDASGRIRLGPAPLNLEVPTYEFTSDDMVIVG [UQCRFS1] | -1.93 | -2.28 | 0.119 | -0.113 | 55.6 | 55.5
3 | MLTKFETKSARVKGLSFHPKRPWILTSLHNGVIQLWDYRMCTLIDKFDEHDGPVRGIDFHKQQPLFVSGGDDYKIKVWNYKLRRCLFTLLGHLDYIRTTFFHHEYPWILSASDDQTIRVWNWQSRTCVCVLTGHNHYVMCAQFHPTEDLVVSASLDQTVRVWDISGLRKKNLSPGAVESDVRGITGVDLFGTTDAVVKHVLEGHDRGVNWAAFHPTMPLIVSGADDRQVKIWRMNESKAWEVDTCRGHYNNVSCAVFHPRQELILSNSEDKSIRVWDMSKRTGVQTFRRDHDRFWVLAAHPNLNLFAAGHDGGMIVFKLERERPAYAVHGNMLHYVKDRFLRQLDFNSSKDVAVMQLRSGSKFPVFNMSYNPAENAVLLCTRASNLENSTYDLYTIPKDADSQNPDAPEGKRSSGLTAVWVARNRFAVLDRMHSLLIKNLKNEITKKVQVPNCDEIFYAGTGNLLLRDADSITLFDVQQKRTLASVKISKVKYVIWSADMSHVALLAKHAIVICNRKLDALCNIHENIRVKSGAWDESGVFIYTTSNHIKYAVTTGDHGIIRTLDLPIYVTRVKGNNVYCLDRECRPRVLTIDPTEFKFKLALINRKYDEVLHMVRNAKLVGQSIIAYLQKKGYPEVALHFVKDEKTRFSLALECGNIEIALEAAKALDDKNCWEKLGEVALLQGNHQIVEMCYQRTKNFDKLSFLYLITGNLEKLRKMMKIAEIRKDMSGHYQNALYLGDVSERVRILKNCGQKSLAYLTAATHGLDEEAESLKETFDPEKETIPDIDPNAKLLQPPAPIMPLDTNWPLLTVSKGFFEGTIASKGKGGALAADIDIDTVGTEGWGEDAELQLDEDGFVEATEGLGDDALGKGQEEGGGWDVEEDLELPPELDISPGAAGGAEDGFFVPPTKGTSPTQIWCNNSQLPVDHILAGSFETAMRLLHDQVGVIQFGPYKQLFLQTYARGRTTYQALPCLPSMYGYPNRNWKDAGLKNGVPAVGLKLNDLIQRLQLCYQLTTVGKFEEAVEKFRSILLSVPLLVVDNKQEIAEAQQLITICREYIVGLSVETERKKLPKETLEQQKRICEMAAYFTHSNLQPVHMILVLRTALNLFFKLKNFKTAATFARRLLELGPKPEVAQQTRKILSACEKNPTDAYQLNYDMHNPFDICAASYRPIYRGKPVEKCPLSGACYSPEFKGQICRVTTVTEIGKDVIGLRISPLQFR [COPA] | -0.819 | -0.346 | -0.365 | -0.16 | 51 | 50.3
4 | MLVHLFRVGIRGGPFPGRLLPPLRFQTFSAVRNTWRNGKTGQLHKAEGEYSDGYRSSSLLRAVAHLRSQLWAHLPRAPLAPRWSPSAWCWVGGALLGPMVLSKHPHLCLVALCEAEEAPPASSTPHVVGSRFNWKLFWQFLHPHLLVLGVAVVLALGAALVNVQIPLLLGQLVEVVAKYTRDHVGSFMTESQNLSTHLLILYGVQGLLTFGYLVLLSHVGERMAVDMRRALFSSLLRQDITFFDANKTGQLVSRLTTDVQEFKSSFKLVISQGLRSCTQVAGCLVSLSMLSTRLTLLLMVATPALMGVGTLMGSGLRKLSRQCQEQIARAMGVADEALGNVRTVRAFAMEQREEERYGAELEACRCRAEELGRGIALFQGLSNIAFNCMVLGTLFIGGSLVAGQQLTGGDLMSFLVASQTVQRSMANLSVLFGQVVRGLSAGARVFEYMALNPCIPLSGGCCVPKEQLRGSVTFQNVCFSYPCRPGFEVLKDFTLTLPPGKIVALVGQSGGGKTTVASLLERFYDPTAGVVMLDGRDLRTLDPSWLRGQVVGFISQEPVLFGTTIMENIRFGKLEASDEEVYTAAREANAHEFITSFPEGYNTVVGERGTTLSGGQKQRLAIARALIKQPTVLILDEATSALDAESERVVQEALDRASAGRTVLVIAHRLSTVRGAHCIVVMADGRVWEAGTHEELLKKGGLYAELIRRQALDAPRTAAPPPKKPEGPRSHQHKS [ABCB8] | 0.49 | -0.355 | -0.36 | 0.155 | 51.1 | 
